From patent US20260274985A1 (MYTHIC THERAPEUTICS, published 2026)

T1: Human TROP2 Protein, His Tag (Acro Biosystems) (human, UniProt P09758 27-274)
T1 construct: not shown: His tag
T1 sequence (looked up): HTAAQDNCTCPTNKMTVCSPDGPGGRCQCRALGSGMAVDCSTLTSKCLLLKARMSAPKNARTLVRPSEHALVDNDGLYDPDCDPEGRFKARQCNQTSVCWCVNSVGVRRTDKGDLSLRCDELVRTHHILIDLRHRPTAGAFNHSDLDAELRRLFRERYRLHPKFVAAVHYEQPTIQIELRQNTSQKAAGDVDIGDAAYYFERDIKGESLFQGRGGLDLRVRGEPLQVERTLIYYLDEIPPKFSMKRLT

T2: Human TROP2 Protein, His Tag (Acro Biosystems) (human, UniProt P09758 27-274)
T2 construct: Bought protein; also called TACSTD2; not shown: His tag
T2 sequence: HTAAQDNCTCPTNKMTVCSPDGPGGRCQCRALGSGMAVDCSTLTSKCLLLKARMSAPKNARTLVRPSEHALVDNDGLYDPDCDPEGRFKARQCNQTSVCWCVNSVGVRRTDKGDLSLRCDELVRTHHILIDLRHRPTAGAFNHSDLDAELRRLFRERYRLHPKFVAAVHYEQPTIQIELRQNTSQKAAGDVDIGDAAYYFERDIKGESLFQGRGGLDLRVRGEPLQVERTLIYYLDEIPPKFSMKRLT


Key:
[1] = molecular target: T1, Human TROP2 Protein, His Tag (Acro …); assay: Octet BLI: IgG supernatant on anti-human Fc sensor, 50 nM TROP2-His at pH 7.4, dissociation at pH 7.4 or 5.4; Octet Binding Result 1=pH dependent
Description: (§1) After allowing for four days of protein expression, cell culture supernatants were collected, quantified by SDS-PAGE analysis (DNS), and the pH dependence of the variant was evaluated using biolayer interferometry (BLI) on an Octet RED 96e instrument. Briefly, cell culture supernatants were diluted based on qualitative expression level of the variant determined by visual examination of SDS-PAGE gels, 5 μL of cell culture supernatant was diluted into 195 μL of 1×PBST, pH 7.4 for high expressors, 25 μL of cell culture supernatant was diluted into 175 μL of 1×PBST, pH 7.4 for medium expressors and 100 μL of cell culture supernatant was diluted into 100 μL of 1×PBST, pH 7.4 for low expressors for loading onto the sensor tips. The resulting diluted supernatants were then captured on an anti-human Fc sensor (Forte Bio). A baseline was established using 1×PBST (50 mM Potassium Phosphate Buffer+150 mM NaCl+0.05% Tween 20) pH 7.4, and the sensor was associated with 50 nM of TROP2 (Human TROP2 Protein, His Tag, Acro Biosystems) in 1×PBST pH 7.4 for 120 sec to generate an association curve. In the dissociation phase, the antibody-antigen complex on the sensor was exposed to 1×PBST pH 7.4 or pH 5.4, for 300 sec. Association and dissociation phase curves were examined for the starting ABPC antibody (with no substitutions) and each corresponding antibody variant at pH 5.4 and pH 7.4 to inform on two criteria: a) enhanced dissociation (i.e., higher koff values) at pH 5.4 due to histidine or alanine substitution compared to the starting ABPC, (with no substitutions), and b) reduced dissociation at pH 7.4 (i.e., lower koff values) compared to pH 5.4 in the antibody variant itself and with the starting ABPC (with no substitutions). […] It was also noted that while some mutations obliterated TROP2 binding, others were tolerated with little or n change in TROP2 binding kinetics.

[2] = molecular target: T2, Human TROP2 Protein, His Tag (Acro …); assay: BLI (Octet)
[3] = molecular target: T1, Human TROP2 Protein, His Tag (Acro …); assay: BLI (Octet) [2/2]
[4] = molecular target: T1, Human TROP2 Protein, His Tag (Acro …); assay: Octet BLI: IgG supernatant on anti-human Fc sensor, 50 nM TROP2-His at pH 7.4; Octet Binding Result 3=No binding
Description: as §1

Binder	binding result [1]	binding result [2]	binding result [3]	further results
MYT13266 (antibody, V domains shown, Full-length IgG from Expi293 supernatant; also called datopotamab heavy chain and light chain pairing variant) VH: QVQLVQSGAEVKKPGASVKVSCKASGYTFTTAGMQWVRQAPGQGLEWMGWINTHSGVPKYAEDFKGRVTISADTSTSTAYLQLSSLKSEDTAVYYCARSGHGSSYWYFDVWGQGTLVTVSS VL: DIQMTQSPSSLSASVGDRVTITCKASQDVSTAVAWYQQKPGKAPKLLIYSASHRYTGVPSRFSGSGSGTDFTLTISSLQPEDFAVYYCQQHYITPLTFGQGTKLEIK	binds			
MYT13273 (antibody, V domains shown, Full-length IgG from Expi293 supernatant; also called datopotamab heavy chain and light chain pairing variant) VH: QVQLVQSGAEVKKPGASVKVSCKASGYTFTTAGMQWVRQAPGQGLEWMGWINTHSGVPKYAEDFKGRVTISADTSTSTAYLQLSSLKSEDTAVYYCAHSGFGSSYWYFDVWGQGTLVTVSS VL: DIQMTQSPSSLSASVGDRVTITCKASQDVSTAVAWYQQKPGKAPKLLIYSASYRYTGVPSRFSGSGSGTDFTLTISSLQPEDFAVYYCQQHYHTPLTFGQGTKLEIK	binds			
MYT13275 (antibody, V domains shown, Full-length IgG from Expi293 supernatant; also called datopotamab heavy chain and light chain pairing variant) VH: QVQLVQSGAEVKKPGASVKVSCKASGYTFTTAGMQWVRQAPGQGLEWMGWINTHSGVPKYAEDFKGRVTISADTSTSTAYLQLSSLKSEDTAVYYCARSGFGSHYWYFDVWGQGTLVTVSS VL: DIQMTQSPSSLSASVGDRVTITCKASQDVSTAVAWYQQKPGKAPKLLIYSASYRYTGVPSRFSGSGSGTDFTLTISSLQPEDFAVYYCQQHYHTPLTFGQGTKLEIK	binds			
MYT13274 (antibody, V domains shown, Full-length IgG from Expi293 supernatant; also called datopotamab heavy chain and light chain pairing variant) VH: QVQLVQSGAEVKKPGASVKVSCKASGYTFTTAGMQWVRQAPGQGLEWMGWINTHSGVPKYAEDFKGRVTISADTSTSTAYLQLSSLKSEDTAVYYCARSGHGSSYWYFDVWGQGTLVTVSS VL: DIQMTQSPSSLSASVGDRVTITCKASQDVSTAVAWYQQKPGKAPKLLIYSASYRYTGVPSRFSGSGSGTDFTLTISSLQPEDFAVYYCQQHYHTPLTFGQGTKLEIK	binds			
MYT13267 (antibody, V domains shown, Full-length IgG from Expi293 supernatant; also called datopotamab heavy chain and light chain pairing variant) VH: QVQLVQSGAEVKKPGASVKVSCKASGYTFTTAGMQWVRQAPGQGLEWMGWINTHSGVPKYAEDFKGRVTISADTSTSTAYLQLSSLKSEDTAVYYCARSGFGSHYWYFDVWGQGTLVTVSS VL: DIQMTQSPSSLSASVGDRVTITCKASQDVSTAVAWYQQKPGKAPKLLIYSASHRYTGVPSRFSGSGSGTDFTLTISSLQPEDFAVYYCQQHYITPLTFGQGTKLEIK	binds			
MYT12431 (hu7E6SVG variant, HCV substitutions at 33, 51, 106) (antibody, V domains shown) VH: QVQLQESGPGLVKPSETLSLTCTVSGGSISSYHVHWIRQPPGKGLEWIGVHWTSGVTDYNSALMGRVTISVDTSKNQFSLKLSSVTAADTAVYYCARDGDYDRYTHDYWGQGTLVTVSS VL: DIVMTQSPDSLAVSLGERATINCRASKSVSTSGYSYMHWYQQKPGQPPKLLIYLASNLESGVPDRFSGSGSGTDFTLTISSLQAEDVAVYYCQHSRELPYTFGQGTKLEIK		no binding (tested: 50 nM)		
MYT13439 (antibody, V domains shown, Full-length IgG from Expi293 supernatant; also called hu7E6SVG heavy chain and light chain pairing variant) VH: QVQLQESGPGLVKPSETLSLTCTVSGGSISSYGVHWIRQPPGKGLEWIGVIWTSGHTDYNSALMGRVTISVDTSKNQFSLKLSSVTAADTAVYYCARDGDYDRYTMDYWGQGTLVTVSS VL: DIVMTQSPDSLAVSLGERATINCRASKSVSTSGYSYMHWYQQKPGQPPKLLIYLASNLHSGVPDRFSGSGSGTDFTLTISSLQAEDVAVYYCQASRELPYTFGQGTKLEIK			no binding (tested: 50 nM)	
MYT12473 (hu7E6SVG variant, LCV substitutions at 94, 97, 101 (Ala at 94)) (antibody, V domains shown, Full IgG in Expi293 supernatant) VH: QVQLQESGPGLVKPSETLSLTCTVSGGSISSYGVHWIRQPPGKGLEWIGVIWTSGVTDYNSALMGRVTISVDTSKNQFSLKLSSVTAADTAVYYCARDGDYDRYTMDYWGQGTLVTVSS VL: DIVMTQSPDSLAVSLGERATINCRASKSVSTSGYSYMHWYQQKPGQPPKLLIYLASNLESGVPDRFSGSGSGTDFTLTISSLQAEDVAVYYCQASRHLPYHFGQGTKLEIK		no binding (tested: 50 nM)		
MYT13444 (antibody, V domains shown, Full-length IgG from Expi293 supernatant; also called hu7E6SVG heavy chain and light chain pairing variant) VH: QVQLQESGPGLVKPSETLSLTCTVSGGSISSYGVHWIRQPPGKGLEWIGVIWTSGHTDYNSALMGRVTISVDTSKNQFSLKLSSVTAADTAVYYCARDGDYDRYTMDYWGQGTLVTVSS VL: DIVMTQSPDSLAVSLGERATINCRASKSVSTSGYSYMHWYQQKPGQPPKLLIYLASNLHSGVPDRFSGSGSGTDFTLTISSLQAEDVAVYYCQHSRELPYHFGQGTKLEIK			no binding (tested: 50 nM)	
MYT13438 (antibody, V domains shown, Full-length IgG from Expi293 supernatant; also called hu7E6SVG heavy chain and light chain pairing variant) VH: QVQLQESGPGLVKPSETLSLTCTVSGGSISSYGVHWIRQPPGKGLEWIGVHWTSGVTDYNSALMGRVTISVDTSKNQFSLKLSSVTAADTAVYYCARDGDYDRYTMDYWGQGTLVTVSS VL: DIVMTQSPDSLAVSLGERATINCRASKSVSTSGYSYMHWYQQKPGQPPKLLIYLASNLHSGVPDRFSGSGSGTDFTLTISSLQAEDVAVYYCQASRELPYTFGQGTKLEIK			no binding (tested: 50 nM)	
MYT13442 (antibody, V domains shown, Full-length IgG from Expi293 supernatant; also called hu7E6SVG heavy chain and light chain pairing variant) VH: QVQLQESGPGLVKPSETLSLTCTVSGGSISSYGVHWIRQPPGKGLEWIGVIWTSGVTDYNSALMGRVTISVDTSKNQFSLKLSSVTAADTAVYYCARDGDYDRYTHDYWGQGTLVTVSS VL: DIVMTQSPDSLAVSLGERATINCRASKSVSTSGYSYMHWYQQKPGQPPKLLIYLASNLHSGVPDRFSGSGSGTDFTLTISSLQAEDVAVYYCQASRELPYTFGQGTKLEIK			no binding (tested: 50 nM)	
MYT12433 (hu7E6SVG variant, HCV substitutions at 33, 56, 106) (antibody, V domains shown) VH: QVQLQESGPGLVKPSETLSLTCTVSGGSISSYHVHWIRQPPGKGLEWIGVIWTSGHTDYNSALMGRVTISVDTSKNQFSLKLSSVTAADTAVYYCARDGDYDRYTHDYWGQGTLVTVSS VL: DIVMTQSPDSLAVSLGERATINCRASKSVSTSGYSYMHWYQQKPGQPPKLLIYLASNLESGVPDRFSGSGSGTDFTLTISSLQAEDVAVYYCQHSRELPYTFGQGTKLEIK		no binding (tested: 50 nM)		
MYT12468 (hu7E6SVG variant, LCV substitutions at 60, 94, 101 (Ala at 94)) (antibody, V domains shown, Full IgG in Expi293 supernatant) VH: QVQLQESGPGLVKPSETLSLTCTVSGGSISSYGVHWIRQPPGKGLEWIGVIWTSGVTDYNSALMGRVTISVDTSKNQFSLKLSSVTAADTAVYYCARDGDYDRYTMDYWGQGTLVTVSS VL: DIVMTQSPDSLAVSLGERATINCRASKSVSTSGYSYMHWYQQKPGQPPKLLIYLASNLEHGVPDRFSGSGSGTDFTLTISSLQAEDVAVYYCQASRELPYHFGQGTKLEIK		no binding (tested: 50 nM)		
MYT12434 (hu7E6SVG variant, HCV substitutions at 33, 103, 106) (antibody, V domains shown) VH: QVQLQESGPGLVKPSETLSLTCTVSGGSISSYHVHWIRQPPGKGLEWIGVIWTSGVTDYNSALMGRVTISVDTSKNQFSLKLSSVTAADTAVYYCARDGDYDHYTHDYWGQGTLVTVSS VL: DIVMTQSPDSLAVSLGERATINCRASKSVSTSGYSYMHWYQQKPGQPPKLLIYLASNLESGVPDRFSGSGSGTDFTLTISSLQAEDVAVYYCQHSRELPYTFGQGTKLEIK		no binding (tested: 50 nM)		
MYT13447 (antibody, V domains shown, Full-length IgG from Expi293 supernatant; also called hu7E6SVG heavy chain and light chain pairing variant) VH: QVQLQESGPGLVKPSETLSLTCTVSGGSISSYGVHWIRQPPGKGLEWIGVIWTSGVTDYNSALMGRVTISVDTSKNQFSLKLSSVTAADTAVYYCARDGDYDRYTHDYWGQGTLVTVSS VL: DIVMTQSPDSLAVSLGERATINCRASKSVSTSGYSYMHWYQQKPGQPPKLLIYLASNLHSGVPDRFSGSGSGTDFTLTISSLQAEDVAVYYCQHSRELPYHFGQGTKLEIK			no binding (tested: 50 nM)	
MYT13306 (antibody, V domains shown, Full-length IgG from Expi293 supernatant; also called hu7E6SVG heavy chain and light chain pairing variant) VH: QVQLQESGPGLVKPSETLSLTCTVSGGSISSYGVHWIRQPPGKGLEWIGVHWTSGVTDYNSALMGRVTISVDTSKNQFSLKLSSVTAADTAVYYCARDGDYDRYTMDYWGQGTLVTVSS VL: DIVMTQSPDSLAVSLGERATINCRASKSVSTSGYSYMHWYQQKPGQPPKLLIYLASNLHSGVPDRFSGSGSGTDFTLTISSLQAEDVAVYYCQASRELPYTFGQGTKLEIK				binding result [4]: no binding (tested: 50 nM)
